Experimental findings from US20050042209A1, “MUC1 extracellular domain and cancer treatment compositions and methods derived therefrom” (priority 2000, published 2005) are described below.

The assay deals with HCT116 cells. Put plainly: Apoptosis (sub-G1 DNA, TUNEL) in HCT116 transfectants. The format is cell-based, human. The note with it: FIG. 19. The protocol: Methods. Apoptotic cells were quantified by analysis of sub-G1 DNA and TUNEL staining. To assess sub-G1 DNA content, cells were harvested, washed with PBS, fixed with 80% ethanol, and incubated in PBS containing 20 ng/ml RNase (Roche) for 60 min at 37° C. Cells were then stained with […] propidium iodide (Sigma) for 30 min at room temperature in the dark. DNA content was analyzed by flow cytometry (EPICS XL-MCL, Coulter Corp.). Apoptotic cells with DNA fragmentation were detected by staining with the In Situ cell death detection kit (TUNEL; Roche Applied Science) and visualized by confocal microscopy (ZEISS LSM510). After staining, cells were analyzed by flow cytometry. Other experimental procedures and methods were as described in Example 15.
Results. To determine if MUC1 affects the induction of apoptosis by CDDP, cells were analyzed for sub-G1 DNA content. […] Stimulation of cell surface death receptors with TNF-α or the TNF-related apoptosis inducing factor TRAIL is associated with activation of the extrinsic apoptotic pathway. To determine if MUC1 affects death receptor-induced apoptosis, HCT116 cells were treated with TNF-α.

B1: TRAIL: TNF-related apoptosis inducing factor TRAIL, rhTRAIL (Calbiochem-Novabiochem) (protein, UniProt P50591 1-281, looked up)
Tumor necrosis factor ligand …: MAMMEVQGGPSLGQTCVLIVIFTVLLQSLCVAVTYVYFTNELKQMQDKYSKSGIACFLKEDDSYWDPNDEESMNSPCWQVKWQLRQLVRKMILRTSEETISTVQEKQQNISPLVRERGPQRVAAHITGTRGRSNTLSSPNSKNEKALGRKINSWESSRSGHSFLSNLHLRNGELVIHEKGFYYIYSQTYFRFQEEIKENTKNDKQMVQYIYKYTSYPDPILLMKSARNSCWSKDAEYGLYSIYQGGIFELKENDRIFVSVTNEHLIDMDHEASFFGAFLVG
With B1, the “TRAIL-induced apoptosis, effect of MUC1” value (HCT116/MUC1 cells) is given as “attenuated this response”. The apoptosis entry (HCT116/vector cells, 100 ng/ml TRAIL without CHX) is reported as “effective in inducing apoptosis”.
